Assay results from IntAct's records for PubMed 11781573.

B1: Erythropoietin receptor (Homo sapiens), P19235 (parent)
chain: MDHLGASLWPQVGSLCLLLAGAAWAPPPNLPDPKFESKAALLAARGPEELLCFTERLEDLVCFWEEAASAGVGPGNYSFSYQLEDEPWKLCRLHQAPTARGAVRFWCSLPTADTSSFVPLELRVTAASGAPRYHRVIHINEVVLLDAPVGLVARLADESGHVVLRWLPPPETPMTSHIRYEVDVSAGNGAGSVQRVEILEGRTECVLSNLRGRTRYTFAVRARMAEPSFGGFWSAWSEPVSLLTPSDLDPLILTLSLILVVILVLLTVLALLSHRRALKQKIWPGIPSPESEFEGLFTTHKGNFQLWLYQNDGCLWWSPCTPFTEDPPASLEVLSERCWGTMQAVEPGTDDEGPLLEPVGSEHAQDTYLVLDKWLLPRNPPSEDLPGPGGSVDIVAMDEGSEASSCSSALASKPSPEGASAASFEYTILDPSSQLLRPWTLCPELPPTPPHLKYLYLVVSDSGISTDYSSGDSQGAQGGLSDGPYSNPYENSLIPAAEPLPPSYVACS
partner: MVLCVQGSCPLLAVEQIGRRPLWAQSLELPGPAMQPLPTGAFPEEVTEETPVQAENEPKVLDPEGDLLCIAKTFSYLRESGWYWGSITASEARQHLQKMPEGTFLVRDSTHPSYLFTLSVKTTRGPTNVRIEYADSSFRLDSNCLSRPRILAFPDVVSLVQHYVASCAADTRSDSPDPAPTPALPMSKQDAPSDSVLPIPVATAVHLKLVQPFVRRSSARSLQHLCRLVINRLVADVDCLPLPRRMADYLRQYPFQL
B2: Erythropoietin receptor (Homo sapiens), P19235 (parent)
chain: B1 chain

Variants of: B1
Details: with cish_mouse Cish

| Variant | effect of a mutation on the interaction |
| --- | --- |
| Y426F | decreasing interaction |

Variants of: B2
Details: with socs2_human SOCS2, O14508
socs2_human SOCS2, O14508, sequence (O14508 whole entry): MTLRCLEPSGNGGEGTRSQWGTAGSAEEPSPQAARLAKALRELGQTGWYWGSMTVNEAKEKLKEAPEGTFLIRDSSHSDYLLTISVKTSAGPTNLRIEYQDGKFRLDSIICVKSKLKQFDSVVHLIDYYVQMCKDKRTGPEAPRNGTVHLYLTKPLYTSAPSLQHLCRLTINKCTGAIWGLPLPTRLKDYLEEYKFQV

| Variant | effect of a mutation on the interaction |
| --- | --- |
| Y426F | decreasing interaction |
